Tests used:
[1] = target: 6×-His-SUMO-Avs8A (E. coli ECOR07) (UniProt B7LDL1); test: mass photometry; details: scale: Bas21 mcp monomers per four Avs8 monomers
[2] = target: 6×-His-SUMO-Avs8A (E. coli ECOR07) (UniProt B7LDL1); test: MST
[3] = target: T1, 6×-His-SUMO-Avs8A (E. coli ECOR07, UniProt B7LDL1 1-1283); test: MST
T1 sequence (looked up): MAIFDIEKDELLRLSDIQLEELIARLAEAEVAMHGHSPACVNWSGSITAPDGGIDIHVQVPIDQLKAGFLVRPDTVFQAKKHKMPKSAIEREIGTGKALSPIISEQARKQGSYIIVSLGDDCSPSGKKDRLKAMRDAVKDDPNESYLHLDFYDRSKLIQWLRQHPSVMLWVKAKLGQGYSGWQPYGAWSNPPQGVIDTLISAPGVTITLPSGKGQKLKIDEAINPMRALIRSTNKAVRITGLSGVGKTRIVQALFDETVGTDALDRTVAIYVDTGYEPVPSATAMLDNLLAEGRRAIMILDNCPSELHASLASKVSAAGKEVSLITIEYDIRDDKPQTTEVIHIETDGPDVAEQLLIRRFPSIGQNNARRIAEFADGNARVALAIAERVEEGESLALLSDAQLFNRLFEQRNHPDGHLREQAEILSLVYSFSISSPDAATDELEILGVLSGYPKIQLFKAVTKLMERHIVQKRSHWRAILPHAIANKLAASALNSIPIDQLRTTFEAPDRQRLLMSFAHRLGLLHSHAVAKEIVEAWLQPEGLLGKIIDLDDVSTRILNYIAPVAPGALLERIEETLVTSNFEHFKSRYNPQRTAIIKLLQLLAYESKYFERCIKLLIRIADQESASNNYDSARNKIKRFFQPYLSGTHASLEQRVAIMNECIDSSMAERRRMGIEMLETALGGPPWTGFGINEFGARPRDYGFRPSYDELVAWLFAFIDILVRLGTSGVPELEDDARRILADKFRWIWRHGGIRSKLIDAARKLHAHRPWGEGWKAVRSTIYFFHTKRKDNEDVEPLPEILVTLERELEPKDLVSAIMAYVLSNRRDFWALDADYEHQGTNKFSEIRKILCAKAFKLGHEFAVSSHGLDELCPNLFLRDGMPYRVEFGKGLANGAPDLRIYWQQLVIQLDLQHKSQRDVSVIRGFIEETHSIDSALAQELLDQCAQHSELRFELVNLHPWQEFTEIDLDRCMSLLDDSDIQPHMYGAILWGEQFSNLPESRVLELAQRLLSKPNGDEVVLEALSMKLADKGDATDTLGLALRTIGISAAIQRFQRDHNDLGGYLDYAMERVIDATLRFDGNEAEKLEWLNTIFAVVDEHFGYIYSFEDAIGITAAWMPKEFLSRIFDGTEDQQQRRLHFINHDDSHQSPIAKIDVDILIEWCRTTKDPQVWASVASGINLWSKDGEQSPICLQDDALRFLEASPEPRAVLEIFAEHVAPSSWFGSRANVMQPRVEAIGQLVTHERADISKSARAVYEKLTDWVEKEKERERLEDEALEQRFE

Molecule | stoichiometry N [1] | Kd [2] [nM] | Kd [3] [nM]
Bas21 major capsid protein (natural protein) | 2 | 12 | 
λ gpE major capsid protein (natural protein, phage λ, UniProt P03713 1-341, looked up) MSMYTTAQLLAANEQKFKFDPLFLRLFFRESYPFTTEKVYLSQIPGLVNMALYVSPIVSGEVIRSRGGSTSEFTPGYVKPKHEVNPQMTLRRLPDEDPQNLADPAYRRRRIIMQNMRDEELAIAQVEEMQAVSAVLKGKYTMTGEAFDPVEVDMGRSEENNITQSGGTEWSKRDKSTYDPTDDIEAYALNASGVVNIIVFDPKGWALFRSFKAVKEKLDTRRGSNSELETAVKDLGKAVSYKGMYGDVAIVVYSGQYVENGVKKNFLPDNTMVLGNTQARGLRTYGCIQDADAQREGINASARYPKNWVTTGDPAREFTMIQSAPLMLLADPDEFVSVQLA |  |  | 124
